molecular target: sdcb1_human SDCBP (UniProt O00560)
Sequence of UniProt O00560 (O00560 whole entry): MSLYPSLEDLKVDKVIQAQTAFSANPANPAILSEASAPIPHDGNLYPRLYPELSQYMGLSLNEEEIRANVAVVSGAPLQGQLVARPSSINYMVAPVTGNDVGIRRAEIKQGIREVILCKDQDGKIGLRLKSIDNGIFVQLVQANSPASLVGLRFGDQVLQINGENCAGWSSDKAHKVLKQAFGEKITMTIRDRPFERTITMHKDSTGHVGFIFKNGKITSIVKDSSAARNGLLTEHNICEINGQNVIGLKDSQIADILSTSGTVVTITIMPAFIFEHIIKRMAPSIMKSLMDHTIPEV

effect of a mutation on the interaction | Substance
disrupting interaction | Frizzled-7 (Homo sapiens) (from UniProt O75084) T572A
disrupting interaction | Frizzled-7 (Homo sapiens) (from UniProt O75084) T572A;V574A
decreasing interaction | Frizzled-7 (Homo sapiens) (from UniProt O75084) V574A

Reference: IntAct's records for PubMed 18256285
